Measurements as given in article PMC9109600.

Substrate: Nc1nc2nc[nH]c2c(=O)[nH]1
Test: purified protein
Details: zinc active site

B1: Guanine deaminase (GDA) (Homo sapiens) (protein)
chain: MCAAQMPPLAHIFRGTFVHSTWTCPMEVLRDHLLGVSDSGKIVFLEEASQQEKLAKEWCFKPCEIRELSHHEFFMPGLVDTHIHASQYSFAGSSIDLPLLEWLTKYTFPAEHRFQNIDFAEEVYTRVVRRTLKNGTTTACYFATIHTDSSLLLADITDKFGQRAFVGKVCMDLNDTFPEYKETTEESIKETERFVSEMLQKNYSRVKPIVTPRFSLSCSETLMGELGNIAKTRDLHIQSHISENRDEVEAVKNLYPSYKNYTSVYDKNNLLTNKTVMAHGCYLSAEELNVFHERGASIAHCPNSNLSLSSGFLNVLEVLKHEVKIGLGTDVAGGYSYSMLDAIRRAVMVSNILLINKVNEKSLTLKEVFRLATLGGSQALGLDGEIGNFEVGKEFDAILINPKASDSPIDLFYGDFFGDISEAVIQKFLYLGDDRNIEEVYVGGKQVVPFSSSV
  Km: 12 ± 9 µM
